Substitutions are numbered along the chain they refer to.

To fix the notation:
B1: LB-031 (antibody, V domains shown)
VH: EVQLLESGGGLVQPGGSLRLSCAASGFTFGSYYMGWVRQAPGKGLEWVSYISGYSGYTYYADSVKGRFTISRDNSKNTLYLQMNSLRAEDTAVYYCARFSSPAGYPRMDYWGQGTLVTVSS
VL: DIQMTQSPSSLSASVGDHVTITCRASQSISSYLNWYQQKPGKAPKLLIYAASSLQSGVPSRFSGSGSGTDFTLTISSLQPEDFATYYCQQYYTLPTFGQGTKLEIK
B2: LB-116 (antibody, V domains shown)
VH: EVQLLESGGGLVQPGGSLRLSCAASGFTFSYSYMYWVRQAPGKGLEWVSSISSSGGSTSYADSVKGRFTISRDNSKNTLYLQMNSLRAEDTAVYYCARPNVDSYMDYWGQGTLVTVSS
VL: DIQMTQSPSSLSASVGDHVTITCRASQSISSYLNWYQQKPGKAPKLLIYAASSLQSGVPSRFSGSGSGTDFTLTISSLQPEDFATYYCQQSYIYLPFTFGQGTKLEIK
B3: LB-032 (antibody, V domains shown)
VH: EVQLLESGGGLVQPGGSLRLSCAASGFTFGSYGMSWVRQAPGKGLEWVSYISYSGSYTYYADSVKGRFTISRDNSKNTLYLQMNSLRAEDTAVYYCARGADYYSVLDYWGQGTLVTVSS
VL: B2 VL with S91F, Y92S, I93T, Y94S, L95P, F97S
B4: LB-302 (antibody, V domains shown)
VH: EVQLLESGGGLVQPGGSLRLSCAASGFTFGGYGMSWVRQAPGKGLEWVSYIGYGGSYTYYADSVKGRFTISRDNSKNTLYLQMNSLRAEDTAVYYCARDGAGSYGFFDYWGQGTLVTVSS
VL: B2 VL with S91F, I93T, Y94N, L95P, P96L, F97L
B5: LB-20H10 (antibody, V domains shown)
VH: QVQLQQSGAELVRPGTSVKMSCKAAGYTFTNYWIGWVKQRPGHGLEWIGDIYPGGGYTHHNEKFKGKATLTADTSSSTAYMQLSSLTSEDSAIYYCARSVLPGFAYWGQGTLVTVSA
VL: DIVMTQSHKFMSTSVGDRVSITCKASQDVNTAVAWCQQKPGQSPKLLIYSASYRFTGVPDRFTGSGSGTDFTFTISSVQAEDLAVYFCQQHYSTPYTFGGGTKLEIK

The experiment deals with T1, SLAMF6 (human, UniProt Q96DU3).
T1 chain: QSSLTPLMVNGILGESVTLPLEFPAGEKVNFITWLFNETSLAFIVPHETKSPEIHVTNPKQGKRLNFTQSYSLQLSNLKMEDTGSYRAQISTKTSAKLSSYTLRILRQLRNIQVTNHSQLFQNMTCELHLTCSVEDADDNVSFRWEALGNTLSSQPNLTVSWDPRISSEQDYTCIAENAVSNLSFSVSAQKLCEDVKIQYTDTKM
The experiment is described as follows: SPR.
One may read the Kd as the free concentration of one partner at which half of the binding sites on the other are occupied at equilibrium, for simple one-to-one binding. Read a high Kd as lower affinity. Regarding B1, binding was characterised by a dissociation constant (Kd) of 0.38 nM.
The result for B2 reads 6 nM.
Turning to B3, binding was put at a Kd of 12 nM.
In turn, B4 yielded an equilibrium dissociation constant (Kd) of 16 nM.
B5 showed a Kd of 4.1 nM.
